# Measurements as given in article PMC8828469.
# Where “and” joins values, the source holds several entries; their conditions need not be identical. Equal values may be shown once.
# Biological target: hamster ACE2 ectodomain with human IgG1 Fc tag (hamster)
# Experiment: BLI
substance,measurement,value
"SARS-CoV-2 spike protein of Alpha (B.1.1.7), S^Alpha, recombinant trimeric ectodomain (from UniProt P0DTC2 14-1208) (domain or fragment)",kon,111000 M⁻¹ s⁻¹ and 90700 M⁻¹ s⁻¹ and 98000 M⁻¹ s⁻¹
